Laboratory results published in paper PMC5309799.

What was measured:
[1] = target: purified P113 entire ectodomain (P113 EE) (P. falciparum (3D7 strain)); test: native gel or EMSA; fractions of the gel filtration peak resolved by native PAGE (Bis-Tris, 150 V) against denaturing SDS-PAGE
[2] = target: P113 entire ectodomain, AVEXIS bait and prey forms (P. falciparum (3D7 strain)); test: SPR
Basigin (Homo sapiens) = Basigin (Homo sapiens) (UniProt P35613); details: cited from earlier work
[3] = target: P113 Y1-K197, biotinylated SPR ligand (P. falciparum (3D7 strain)); test: SPR
[4] = target: P113 Y1-N653, biotinylated SPR ligand (P. falciparum (3D7 strain)); test: SPR
[5] = target: Basigin ectodomain, AVEXIS bait or prey and biotinylated SPR ligand (human) (UniProt P35613); test: SPR
[6] = target: Synthetic RH5Nt peptide (F1-K116 with an additional C-terminal cysteine) (P. falciparum); test: SPR
[7] = target: RH5Nt (F1-K116), biotinylated SPR ligand (P. falciparum (3D7 strain)); test: SPR
[8] = target: P113 entire ectodomain, AVEXIS bait or prey and biotinylated SPR ligand (P. falciparum (3D7 strain)); test: SPR

purified P113 entire ectodomain (P113 EE) (natural protein)
stoichiometry N [1]: 4

purified monomeric RH5Nt (F1-K116) (domain or fragment)
Kd [2]: 3000 nM

RH5 (from UniProt Q8IFM5)
Kd (Basigin (Homo sapiens)): 1000 nM

RH5FL, purified monomeric SPR analyte (from UniProt Q8IFM5 25-526) (natural protein)
Kd [3]: 1100 nM
Kd [4]: 500 nM
Kd [5]: 1300 nM

RH5Ct (major processed form of RH5), purified monomeric SPR analyte (domain or fragment)
Kd [5]: 900 nM
koff [5]: 0.293 s⁻¹
kon [5]: 342000 M⁻¹ s⁻¹

purified monomeric full-length RH5 (RH5FL) (from UniProt Q8IFM5 25-526) (natural protein)
Kd [2]: 300 nM

P113 Y1-N653, purified SPR analyte (domain or fragment)
Kd [6]: 5700 nM
koff [6]: 1.24 s⁻¹
kon [6]: 216000 M⁻¹ s⁻¹
Kd [7]: 5000 nM
koff [7]: 1.54 s⁻¹
kon [7]: 304000 M⁻¹ s⁻¹

RH5Nt (N-terminal region of RH5, F1-K116), purified monomeric SPR analyte (domain or fragment)
Kd [8]: 2700 nM
koff [8]: 0.793 s⁻¹
kon [8]: 300000 M⁻¹ s⁻¹
